Laboratory results as given in patent publication US20180250358A1, “GHRH AGONISTS FOR THE TREATMENT OF ISCHEMIC DISORDERS” (published 2018).
Non-standard residues stand in square brackets, D forms with d. No end group written: not given here. *: point of attachment. Phe(F5) = N[C@@H](Cc1c(F)c(F)c(F)c(F)c1F)C(=O)O; Desaminotyrosyl = O=C(CCc1ccc(O)cc1)*; NMeY = CN[C@@H](Cc1ccc(O)cc1)C(=O)O; Nle = CCCC[C@H](N)C(=O)O; Orn = NCCC[C@H](N)C(=O)O; Abu = CC[C@H](N)C(=O)O; Ava = NCCCCC(=O)O

B1: P-22326 [N-Me-Tyr^1, D-Ala^2, Gln^8, Orn^12, Abu^15, Orn^21, Nle^27, Asp^28, Apa^30]hGHRH(1-30)NH2 (peptide)
peptide: [NMeY][dA]DAIFTQSYR[Orn]VL[Abu]QLSAR[Orn]LLQDI[Nle]DR[Ava]-NH2
modifications: N-terminus assumed
SMILES: CCCC[C@H](NC(=O)[C@@H](NC(=O)[C@H](CC(=O)O)NC(=O)[C@H](CCC(N)=O)NC(=O)[C@H](CC(C)C)NC(=O)[C@H](CC(C)C)NC(=O)[C@H](CCCN)NC(=O)[C@H](CCCNC(=N)N)NC(=O)[C@H](C)NC(=O)[C@H](CO)NC(=O)[C@H](CC(C)C)NC(=O)[C@H](CCC(N)=O)NC(=O)[C@H](CC)NC(=O)[C@H](CC(C)C)NC(=O)[C@@H](NC(=O)[C@H](CCCN)NC(=O)[C@H](CCCNC(=N)N)NC(=O)[C@H](Cc1ccc(O)cc1)NC(=O)[C@H](CO)NC(=O)[C@H](CCC(N)=O)NC(=O)[C@@H](NC(=O)[C@H](Cc1ccccc1)NC(=O)[C@@H](NC(=O)[C@H](C)NC(=O)[C@H](CC(=O)O)NC(=O)[C@@H](C)NC(=O)[C@H](Cc1ccc(O)cc1)NC)[C@@H](C)CC)[C@@H](C)O)C(C)C)[C@@H](C)CC)C(=O)N[C@@H](CC(=O)O)C(=O)N[C@@H](CCCNC(=N)N)C(=O)NCCCCC(N)=O
B2: P-22327 [Dat^1, Gln^8, Orn^12, Abu^15, Orn^21, Nle^27, Asp^28, Apa^30]hGHRH(1-30)NH2 (peptide)
peptide: [Desaminotyrosyl]ADAIFTQSYR[Orn]VL[Abu]QLSAR[Orn]LLQDI[Nle]DR[Ava]-NH2
SMILES: CCCC[C@H](NC(=O)[C@@H](NC(=O)[C@H](CC(=O)O)NC(=O)[C@H](CCC(N)=O)NC(=O)[C@H](CC(C)C)NC(=O)[C@H](CC(C)C)NC(=O)[C@H](CCCN)NC(=O)[C@H](CCCNC(=N)N)NC(=O)[C@H](C)NC(=O)[C@H](CO)NC(=O)[C@H](CC(C)C)NC(=O)[C@H](CCC(N)=O)NC(=O)[C@H](CC)NC(=O)[C@H](CC(C)C)NC(=O)[C@@H](NC(=O)[C@H](CCCN)NC(=O)[C@H](CCCNC(=N)N)NC(=O)[C@H](Cc1ccc(O)cc1)NC(=O)[C@H](CO)NC(=O)[C@H](CCC(N)=O)NC(=O)[C@@H](NC(=O)[C@H](Cc1ccccc1)NC(=O)[C@@H](NC(=O)[C@H](C)NC(=O)[C@H](CC(=O)O)NC(=O)[C@H](C)NC(=O)CCc1ccc(O)cc1)[C@@H](C)CC)[C@@H](C)O)C(C)C)[C@@H](C)CC)C(=O)N[C@@H](CC(=O)O)C(=O)N[C@@H](CCCNC(=N)N)C(=O)NCCCCC(N)=O

Columns and labels:
[1] = biological target: T1, GHRH receptor of human pituitary membranes (human, UniProt Q02643); test: competition vs 125I-JV-1-42, human pituitary membranes;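 further: pituitaries used were normal human glands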
T1 sequence: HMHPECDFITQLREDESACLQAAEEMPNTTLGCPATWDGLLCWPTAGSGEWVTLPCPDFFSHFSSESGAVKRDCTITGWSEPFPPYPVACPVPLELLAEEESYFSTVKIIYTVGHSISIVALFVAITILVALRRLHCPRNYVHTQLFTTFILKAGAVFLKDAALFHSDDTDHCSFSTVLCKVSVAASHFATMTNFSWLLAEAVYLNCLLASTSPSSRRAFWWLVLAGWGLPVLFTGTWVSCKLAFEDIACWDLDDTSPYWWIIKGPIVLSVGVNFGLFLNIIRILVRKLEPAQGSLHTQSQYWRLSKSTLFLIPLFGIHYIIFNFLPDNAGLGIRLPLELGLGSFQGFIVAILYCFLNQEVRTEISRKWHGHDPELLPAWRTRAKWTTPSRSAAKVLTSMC
From the text: Normal human pituitaries were purchased from the National Hormone and Peptide Program (A.F. Parlow, Los Angeles, County Harbor-UCLA Medical Center, Torrance, Calif.).

[2] = biological target: T1, GHRH receptor of human pituitary …; test: competition vs 125I-[His1,Nle27]hGHRH(1-32)NH2, human pituitary membranes
From the text: Normal human pituitary was purchased from the National Hormone and Peptide Program (UCLA Medical Center, Torrance, Calif.).

| Binder | IC50 [1] [nM] | relative affinity (binding potency) vs JI-38 [1] [vs JI-38=1] | IC50 [2] [nM] | relative affinity (binding potency) compared to JI-38 [2] [vs JI-38=1] | relative affinity (binding potency) compared to hGHRH(1-29) [2] |
| --- | --- | --- | --- | --- | --- |
| [NMeY][dA]DAIFTNSYR[Orn]VL[Abu]QLSAR[Orn]LLQDI[Nle]DR-NHEt [P-28421 [N-Me-Tyr^1, D-Ala^2, Orn^12, Abu^15, Orn^21, Nle^27, Asp^28]hGHRH(1-29)NH-CH2-CH3] | 1.47 | 2.96 | 3.05 | 0.9 | 2.5 vs hGHRH(1-29)NH2=1 |
| [NMeY][dA]DAI[Phe(F5)]TNSYR[Orn]VL[Abu]QLSAR[Orn]LLQDI[Nle]DR-NHMe [P-27404 [N-Me-Tyr^1, D-Ala^2, Fpa5^6, Orn^12, Abu^15, Orn^21, Nle^27, Asp^28]hGHRH(1-29)NH-CH3] | 0.87 | 5 |  | 2.45 | 6.83 vs hGHRH(1-29)NH2=1 |
| [NMeY][dA]DAIFTQSYR[Orn]VL[Abu]QLSAR[Orn]LLQDI[Nle]DR-NHEt [P-28420 [N-Me-Tyr^1, D-Ala^2, Gln^8, Orn^12, Abu^15, Orn^21, Nle^27, Asp^28]hGHRH(1-29)NH-CH2-CH3] | 0.52 | 8.37 | 2.7 | 1.01 | 2.83 vs hGHRH(1-29)NH2=1 |
| B1 | 0.71 | 6.12 | 0.98 | 2.8 | 7.81 vs hGHRH(1-29)NH2=1 |
| [NMeY]ADAIFTQSYR[Orn]VL[Abu]QLSAR[Orn]LLQDI[Nle]SR-NHMe [P-27405 [N-Me-Tyr^1, Gln^8, Orn^12, Abu^15, Orn^21, Nle^27]hGHRH(1-29)NH-CH3] | 1.08 | 4.03 |  | 1.09 | 3.04 vs hGHRH(1-29)NH2=1 |
| [NMeY][dA]DAIFTTSYR[Orn]VL[Abu]QLSAR[Orn]LLQDI[Nle]DR-NHMe [P-27410 [N-Me-Tyr^1, D-Ala^2, Thr^8, Orn^12, Abu^15, Orn^21, Nle^27, Asp^28]hGHRH(1-29)NH-CH3] | 0.83 | 5.24 | 1.28 | 2.14 | 5.98 vs hGHRH(1-29)NH2=1 |
| B2 | 1.99 | 2.18 |  | 1.34 | 3.75 vs hGHRH(1-29)NH2=1 |
